Several values for one entry are separate records, joined by “and”; a condition that tells them apart may be missing. Identical values can stand only once.
Molecular target: Pomacea canaliculata hemocyanin (PcH), native (Pomacea canaliculata)
Assay: negative-stain transmission electron microscopy; native PcH 0.12 g/L in 20 mM Tris-HCl pH 7.4, 20 mM CaCl2, 20 mM MgCl2; 2% uranyl acetate, room temperature; self-association of subunits into decamers stacked to multi-decamers

Substance: Pomacea canaliculata hemocyanin (PcH), native (complex)
- stoichiometry N: 20 subunits and 30 subunits and 40 subunits
